From patent US20220144922A1 (Adimab, published 2022)
Changes are numbered by the printed parent chain.

B1: ADI-15660 (antibody, V domains shown)
VH: EVQLVQSGTEVKKPGESLKISCKASGYSSFPNWIGWVRQMPGKGLEYMGSIFPDDSNTRYSPSFRGLVAISADKSLRTAYLQWSSLKASDSAIYYCARGPFPHYFDSWGQGTLVTVSS
VL: NFMLTQPHSVSESPGKTVTISCTRSSGSIARNYVQWYQQRPGSSPTTVIYEDDQRPPGVPDRFSGSIDSSSNSASLTISGLQTEDEADYYCQSYDPTNQNVFGTGTKLTVL
notes: IgG
B2: ADI-15667 (antibody, V domains shown)
VH: EVQLVESGGGLVQPGGSLRLSCAASGFTFSDFSMSWVRQAPGKGLEWVSLIKSSGYAYYADSVRGRFTISRDNSKNTLYLQMNSLRAEDTAIYYCAKDADFWSGAAYNGGYNFDSWGQGTLVTVSS
VL: DIQMTQSPATLSVFPGDRATLSCRASQSVGSNLAWYQQKPGQAPRLLIFGASTRATGIPARFSGSGSGTEFTLTISSLQSEDFAVYYCQQYHNWPPLTFGGGTKVDIK
notes: IgG
B3: ADI-15006 (antibody, V domains shown)
VH: EVQLVESGPGLVKPSGTLSLTCTVSGDSMSDYYWSWIRQSPGRGLEWLGYIYYDGSTNYNPSLKGRGTISIDTSKSQFSLTLSSVKAADTAVYYCARGKYYDRGGYYLFYLDYWGQGILVTVSS
VL: DIRLTQSPSSLSASVGDRVTITCRASQTIASYVNWYQQKPGKAPKLLIYAASSLQDGVPSRFSGSGSGTDFALTISSLQPEDFAIYFCQQSYSTPIFTFGPGTKVEIK
notes: IgG; also called Antibody Number 125
B4: ADI-15577 (antibody, V domains shown)
VH: QVQLVQSGAEVKKPGSSVKVSCKASGGTFGSYAISWVRQAPGQGLEWMGGTIPIFGTADHAQKFQGRVTITADKSTSTAYMELSSLRSEDTAVYYCARGVFRVGCSDTSCLKNYYGTDVWGQGTTVTVSS
VL: QSVLIQPASVSGSPGQSITVSCTGSSGDVGAYKYVSWYQQHPGRGPKLIIYDVSARPSGISDRFSGSKSGNTASLTISGLQAEDEADYYCSSYSSSSTLVVFGGGTKVTVL
notes: IgG
B5: ADI-15582 (antibody, V domains shown)
VH: QVQLVQSGGEVKKPGASVKVSCKASGYTFISYGITWVRQAPGQGPEWMGWISPYNGDTNYAQKLQGRVTMTTDTSTTTAYMELRSLRSDDTAIYYCARRYDILTGGGWFDSWGQGTLVTVSS
VL: DIVMTQSPSSLSASVGDRVTINCRASQSIISYLNWYQQKPGKAPELLIYAASSLQSGVPSRFSGSGSGTEFTLTISSLQPEDFATYYCQQSYSTPLSFGPGTKVEIK
notes: IgG
B6: ADI-15588 (antibody, V domains shown)
VH: EVQLVESGPGLVKPSETLSLICRVFGGSVRRGDYNWNWIRQPPGKGLEWIGYIDYSGTTKYNPSLKSRVTISEDTSRNQFSLELRSVTAADTAMYYCARDVGSTPYNYYGMDVWGQGTTVTVSS
VL: EIVLTQSPGTLSLSPGERATLSCRASQTIKNNYLAWYQQKPGQAPRLLMYGVSSRPTGIPDRFSGSGSGTDFSLTIDRLEPEDFAVYYCQQFGRSPELTFGGGTKVEIK
notes: IgG; also called Antibody Number 155
B7: ADI-15593 (antibody, V domains shown)
VH: QVQLVQSGGGLVRPGGSLRLSCAASGFMFSTYSMNWLRTVPGKGLEWVSSISGSSSHIYYADSVKGRFTISRDNTKNSLYLQMNSLRPEDTALYYCARYFGDYSGLGNYYYYGMDVWGQGTTVTVSS
VL: DIVMTQSPVSLPVTPGEPASISCRSSQSLLHSNGNNYLDWYLQRPGQSPQLLIYLGSNRASGVPDRFSGSGSGTDFTLRISRVEAEDVGVYYCMQALQTPRFGGGTKVEIK
notes: IgG; also called Antibody Number 160
B8: ADI-15556 (antibody, V domains shown)
VH: QVQLVQSGAEVKKPGSSVKVSCKASGGNVNIYGISWVRQAPGQGLEWMGGIIPIYDTTKYAQKFQDRVTITADKSTSTAYMELSSLRSEDTAVYFCARDLDYDILTGYSVNYYYYGMDVWGQGTTVTVSS
VL: QSVLTQPPSVSGAPGQRVTISCTGSSSNIGAGYDVHWYQQLPGTAPKLLIYGNINRPSGVPDRFSGSKSGTSASLAITGLQAEDEADYYCQSCDSSLSGWVFGGGTKLTIL
notes: IgG
B9: ADI-15599 (antibody, V domains shown)
VH: EVQLLESGGGLVQPGRSLRLSCSGSGFTFGDYALSWVRQAPGKGLEWVGFIRSKAYGGTTEYAASVKGRFTISRDDSKSIAYLQMNSLKTEDTAVYYCTMAVVVPGATDAFDIWGQGTMVTVSS
VL: NFMLTQPHSVSESPGKTVTISCTRSSGSIASDYVQWFQQRPGSSPATVIYQDNQRPSGVPDRFSGSIDTSSNSASLTISGLKTEDEADYYCHSYDSSNPWVFGGGTKLTVL
notes: IgG; also called Antibody Number 165
B10: ADI-15600 (antibody, V domains shown)
VH: EVQLVESGGGLIQPGGSLRLSCAVSGFSVSSNYISWVRQPPGKGLEWVSVSYSSGVTDYADSVKGRFTTSRDNSKNTLYLQMNSLRGEDTAVYYCARELVPNFYESHGYFSVWGQGTLVTVSS
VL: DIVMTQSPGTLSLSPGERATLSCRASQRVDSSYLAWYQQKPGQAPRLLIYGGSSRATGIPDRFSGSGSGTDFTLTISRLEPEDFALYYCQQYGFSQTFGQGTKVEIK
notes: IgG; also called Antibody Number 166
B11: ADI-15601 (antibody, V domains shown)
VH: EVQLLETGGGLVKPGGSLRLSCEATGFTFSDFAMSWVRQAPGKGLEWVSLIKSSDYPYYADSVRGRFTISRDNSKNTLYLRMDNLRADDTAVYYCAKDADFWSGEAYNGGYNFDSWGQGTLVTVSS
VL: EIVLTQSPATLSVSPGERATLSCRASQSIGTNLAWYQQKPGQAPRLLIFGASTRATGIPARFTGSGSGTEFTLTIGSLQSEDFAVYYCQQYNQWPPITFGGGTKVEIK
notes: IgG
B12: ADI-15605 (antibody, V domains shown)
VH: QVQLVQSGPEVKKPGESLKISCKGSGYTFTTYWIGWVRQRPGKGLEWMGIIHPGDSDTRYSPSLQGQVTISVDKSINTAYLQWRSLKASDTGMYYCARFEYGDFGNDFWGQGTLVTVSS
VL: B1 VL with T23S, R31N, D53N, P57S, Q82K, P96S, T97S, Q99H, N100R, T104G
notes: IgG
B13: ADI-15611 (antibody, V domains shown)
VH: QVQLVESGAEVKKPGSSVKVSCKASGGTFGRDSISWVRQAPGQGLEWMGGINPIFHTSHYAQKFQGRVTITADESTSTAYMELGNLRSEDTAMYYCARVPPPRGHCESTSCLWGTYFAFWGQGTLVTVSS
VL: ETTLTQSPATLSLSPGERATLSCRASQRVRSYLAWYQQKPGQAPRLLIYDASIRATGIPARFSGSGSGADFTLTISSLEPEDFAVYYCQLRDYWPPTWTFGQGTKVEIK
notes: IgG
B14: ADI-15647 (antibody, V domains shown)
VH: QVQLVQSGAEVKKPGSSVRVSCEASGGTFSTYAISWVRQAPGLGLEWMGGIHPISGTANYAQSFQDRLTITVDKSTSTAYMDLSSLRSEDTAIYYCARVGLGRTWIYDTMGYLDYWGQGTLVTVSS
VL: EIVLTQSPATLSLSPGERVTLSCRASQSVNDYLAWYQQKPGQAPRLLIYDASNRATGIPARFSGSGSGTDFTLTISSLEPEDFAVYYCQHRTNWPSLTFGGGTKVEIK
B15: ADI-15657 (antibody, V domains shown)
VH: QVQLVQSGTEVKKPGSSVKVSCKASGGTFSSYAISWVRQAPGQGLEWMGGIHPTSGPANYAQKFQDRVTITVDKSTSTVYMDLSSLRSEDTAVYYCARVGVGRTWIYDTMGYLDFWGQGTLVTVSS
VL: B14 VL with L4M, V19A, N30S, S76T, T92S, N93D, V105L
B16: ADI-15665 (antibody, V domains shown)
VH: QVQLVQSGPEVKRPGSSVKVSCKASGDTFNNYAISWVRQAPGQGLEWMGGIHPTTATPNYAQKFQGRVVISADKSTSTAYLDLSRLRSEDTAMYYCARVGVGRTWVYDIMGYLDYWGQGTLVTVSS
VL: B14 VL with V19A, N30S, K39R, N53T, A60D, S65G, T92N

Each binder was assayed against T1, postfusion RSV F ectodomain, subtype B (respiratory syncytial virus subtype B) (assay: BLI, IgG on sensor).
T1 construct: extracellular domain; also called Postfusion subtype B

Binder	Kd [nM]
B1	0.105
B2	0.208
B3	3.61
B4	0.679
B5	0.295
B6	0.953
B7	0.761
B8	0.19
B9	0.652
B10	0.148
B11	0.193
B12	0.171
B13	0.609

The binders below were run against T2, prefusion-stabilized RSV F ectodomain (DS-Cav1), subtype B (respiratory syncytial virus subtype B) (assay: BLI, IgG on sensor).
T2 construct: extracellular domain; also called Prefusion subtype B

Binder	Kd [nM]
B1	0.89
B2	0.333
B3	4.2
B4	4.66
B5	2.32
B6	0.427
B7	3.95
B8	2.2
B9	0.246
B10	1.42
B11	0.329
B12	3.49
B13	4.34

The binders below were run against T3, postfusion RSV F ectodomain (F ΔFP), subtype A (respiratory syncytial virus subtype A, UniProt P03420 26-109; P03420 147-524) (assay: BLI, IgG on sensor).
T3 construct: extracellular domain; also called Postfusion subtype A

Binder	Kd [nM]
B1	0.098
B2	0.231
B3	0.243
B4	0.779
B5	0.385
B6	0.353
B7	0.507
B8	0.247
B9	1.23
B10	0.162
B11	0.207
B12	0.163
B13	0.626

These binders were tested against T4, RSV F protein of subtype A strain A2, on virus (respiratory syncytial virus subtype A …, UniProt P03420 26-574) (assay: cell-based or functional assay).

Binder	RSV-A2 IC50 [µg/mL]
B14	> 25
B15	> 25
B16	12.7

Each binder was assayed against HMPV F protein (NL/1/00, A1 sublineage), on virus (human metapneumovirus) (assay: cell-based or functional assay).

Binder	HMPV-A1 IC50 [µg/mL]
B14	20.3
B15	11.9
B16	13.5

Molecular target: T4, RSV F protein of subtype A strain A2, …
Test: cell-based or functional assay
Remark: another data set of the same source

Binder	Neut IC50 (ug/ml) subtype A [µg/mL]
B14	> 10
B15	> 10
B1	17.3
B16	12.7
B2	0.039
B3	19.1
B4	> 10
B5	2.22
B6	0.094
B7	> 10
B8	0.055
B9	0.11
B10	1.31
B11	0.046
B12	> 10
B13	0.15

These binders were tested against RSV F protein of subtype B strain 18537, on virus (respiratory syncytial virus subtype B …, UniProt P13843 26-574) (assay: cell-based or functional assay).

Binder	Neut IC50 (ug/ml) subtype B [µg/mL]
B14	> 10
B15	> 10
B1	> 10
B16	6.25
B2	0.048
B3	> 10
B4	> 10
B5	6.74
B6	0.234
B7	> 10
B8	0.081
B9	0.378
B10	0.958
B11	0.084
B12	> 10
B13	0.432
